Results taken from paper PMC6810841.

Target: BicDR1 E165R/E167K-GFP (mouse) (UniProt A0JNT9)
Sequence of UniProt A0JNT9 (A0JNT9 whole entry E165R/E167K): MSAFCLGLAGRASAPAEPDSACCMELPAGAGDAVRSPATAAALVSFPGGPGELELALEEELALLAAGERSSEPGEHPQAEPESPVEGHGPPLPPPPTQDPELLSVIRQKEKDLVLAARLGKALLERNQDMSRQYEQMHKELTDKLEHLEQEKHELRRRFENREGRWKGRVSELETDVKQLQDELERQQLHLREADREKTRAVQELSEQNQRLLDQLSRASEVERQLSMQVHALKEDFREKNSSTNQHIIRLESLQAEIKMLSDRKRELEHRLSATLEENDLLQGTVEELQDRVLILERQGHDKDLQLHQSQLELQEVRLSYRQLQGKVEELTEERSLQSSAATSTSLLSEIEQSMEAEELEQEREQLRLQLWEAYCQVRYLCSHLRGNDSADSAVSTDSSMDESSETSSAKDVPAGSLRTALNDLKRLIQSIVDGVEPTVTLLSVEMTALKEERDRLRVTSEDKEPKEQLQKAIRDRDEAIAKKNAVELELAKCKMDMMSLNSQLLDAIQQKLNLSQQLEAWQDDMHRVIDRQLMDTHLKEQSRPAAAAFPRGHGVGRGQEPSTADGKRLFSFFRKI

Substance: dynein long tail (SNAP-DYNC1H1 1-1,074-GST with associated chains) (from UniProt Q14204;O43237;P63172;P63167;Q9NP97) (complex)
- reduction of recruitment against BicDR1: 50%
